From US20150087577A1 (POLYPHOR, published 2015)
Bridges are numbered along the chain shown (N, C = ends). [ ]: non-standard residue; d: D form. Phe(4-F) = N[C@@H](Cc1ccc(F)cc1)C(=O)O; 2Nal = N[C@@H](Cc1ccc2ccccc2c1)C(=O)O; Cit = NC(=O)NCCC[C@H](N)C(=O)O

B1: Example 98 (peptide)
peptide: cyclo(YRVCRG[dP]RR[2Nal]CYQK[dP]P)
modifications: disulfide 4-11
SMILES: CC(C)[C@@H]1NC(=O)[C@H](CCCNC(=N)N)NC(=O)[C@H](Cc2ccc(O)cc2)NC(=O)[C@@H]2CCCN2C(=O)[C@H]2CCCN2C(=O)[C@H](CCCCN)NC(=O)[C@H](CCC(N)=O)NC(=O)[C@H](Cc2ccc(O)cc2)NC(=O)[C@@H]2CSSC[C@H](NC1=O)C(=O)N[C@@H](CCCNC(=N)N)C(=O)NCC(=O)N1CCC[C@@H]1C(=O)N[C@@H](CCCNC(=N)N)C(=O)N[C@@H](CCCNC(=N)N)C(=O)N[C@@H](Cc1ccc3ccccc3c1)C(=O)N2
B2: Example 101 (peptide)
peptide: cyclo(YR[Cit]CSG[dP]RR[2Nal]CYQK[dP]P)
modifications: disulfide 4-11
SMILES: N=C(N)NCCC[C@@H]1NC(=O)[C@H](CCCNC(=N)N)NC(=O)[C@H]2CCCN2C(=O)CNC(=O)[C@H](CO)NC(=O)[C@@H]2CSSC[C@H](NC(=O)[C@H](Cc3ccc4ccccc4c3)NC1=O)C(=O)N[C@@H](Cc1ccc(O)cc1)C(=O)N[C@@H](CCC(N)=O)C(=O)N[C@@H](CCCCN)C(=O)N1CCC[C@@H]1C(=O)N1CCC[C@H]1C(=O)N[C@@H](Cc1ccc(O)cc1)C(=O)N[C@@H](CCCNC(=N)N)C(=O)N[C@@H](CCCNC(N)=O)C(=O)N2
B3: Example 20 (peptide)
peptide: cyclo(YR[Cit]FR[Cit]PRR[2Nal]VY[Cit]K[dP]P)
SMILES: CC(C)[C@@H]1NC(=O)[C@H](Cc2ccc3ccccc3c2)NC(=O)[C@H](CCCNC(=N)N)NC(=O)[C@H](CCCNC(=N)N)NC(=O)[C@@H]2CCCN2C(=O)[C@H](CCCNC(N)=O)NC(=O)[C@H](CCCNC(=N)N)NC(=O)[C@H](Cc2ccccc2)NC(=O)[C@H](CCCNC(N)=O)NC(=O)[C@H](CCCNC(=N)N)NC(=O)[C@H](Cc2ccc(O)cc2)NC(=O)[C@@H]2CCCN2C(=O)[C@H]2CCCN2C(=O)[C@H](CCCCN)NC(=O)[C@H](CCCNC(N)=O)NC(=O)[C@H](Cc2ccc(O)cc2)NC1=O
B4: Example 99 (peptide)
peptide: cyclo(YR[Phe(4-F)]CRG[dP]RR[2Nal]CYQK[dP]P)
modifications: disulfide 4-11
SMILES: N=C(N)NCCC[C@@H]1NC(=O)[C@@H]2CSSC[C@H](NC(=O)[C@H](Cc3ccc4ccccc4c3)NC(=O)[C@H](CCCNC(=N)N)NC(=O)[C@H](CCCNC(=N)N)NC(=O)[C@H]3CCCN3C(=O)CNC1=O)C(=O)N[C@@H](Cc1ccc(O)cc1)C(=O)N[C@@H](CCC(N)=O)C(=O)N[C@@H](CCCCN)C(=O)N1CCC[C@@H]1C(=O)N1CCC[C@H]1C(=O)N[C@@H](Cc1ccc(O)cc1)C(=O)N[C@@H](CCCNC(=N)N)C(=O)N[C@@H](Cc1ccc(F)cc1)C(=O)N2
B5: Example 103 (peptide)
peptide: cyclo(YR[Cit]CRG[dP]RR[2Nal]CY[Cit]E[dP]P)
modifications: disulfide 4-11
SMILES: N=C(N)NCCC[C@@H]1NC(=O)[C@@H]2CSSC[C@H](NC(=O)[C@H](Cc3ccc4ccccc4c3)NC(=O)[C@H](CCCNC(=N)N)NC(=O)[C@H](CCCNC(=N)N)NC(=O)[C@H]3CCCN3C(=O)CNC1=O)C(=O)N[C@@H](Cc1ccc(O)cc1)C(=O)N[C@@H](CCCNC(N)=O)C(=O)N[C@@H](CCC(=O)O)C(=O)N1CCC[C@@H]1C(=O)N1CCC[C@H]1C(=O)N[C@@H](Cc1ccc(O)cc1)C(=O)N[C@@H](CCCNC(=N)N)C(=O)N[C@@H](CCCNC(N)=O)C(=O)N2
B6: Example 95 (peptide)
peptide: cyclo(YRACRG[dP]RR[2Nal]CYQK[dP]P)
modifications: disulfide 4-11
SMILES: C[C@@H]1NC(=O)[C@H](CCCNC(=N)N)NC(=O)[C@H](Cc2ccc(O)cc2)NC(=O)[C@@H]2CCCN2C(=O)[C@H]2CCCN2C(=O)[C@H](CCCCN)NC(=O)[C@H](CCC(N)=O)NC(=O)[C@H](Cc2ccc(O)cc2)NC(=O)[C@@H]2CSSC[C@H](NC1=O)C(=O)N[C@@H](CCCNC(=N)N)C(=O)NCC(=O)N1CCC[C@@H]1C(=O)N[C@@H](CCCNC(=N)N)C(=O)N[C@@H](CCCNC(=N)N)C(=O)N[C@@H](Cc1ccc3ccccc3c1)C(=O)N2
B7: Example 97 (peptide)
peptide: cyclo(YRLCRG[dP]RR[2Nal]CYQK[dP]P)
modifications: disulfide 4-11
SMILES: CC(C)C[C@@H]1NC(=O)[C@H](CCCNC(=N)N)NC(=O)[C@H](Cc2ccc(O)cc2)NC(=O)[C@@H]2CCCN2C(=O)[C@H]2CCCN2C(=O)[C@H](CCCCN)NC(=O)[C@H](CCC(N)=O)NC(=O)[C@H](Cc2ccc(O)cc2)NC(=O)[C@@H]2CSSC[C@H](NC1=O)C(=O)N[C@@H](CCCNC(=N)N)C(=O)NCC(=O)N1CCC[C@@H]1C(=O)N[C@@H](CCCNC(=N)N)C(=O)N[C@@H](CCCNC(=N)N)C(=O)N[C@@H](Cc1ccc3ccccc3c1)C(=O)N2
B8: Example 100 (peptide)
peptide: cyclo(YRMCRG[dP]RR[2Nal]CYQK[dP]P)
modifications: disulfide 4-11
SMILES: CSCC[C@@H]1NC(=O)[C@H](CCCNC(=N)N)NC(=O)[C@H](Cc2ccc(O)cc2)NC(=O)[C@@H]2CCCN2C(=O)[C@H]2CCCN2C(=O)[C@H](CCCCN)NC(=O)[C@H](CCC(N)=O)NC(=O)[C@H](Cc2ccc(O)cc2)NC(=O)[C@@H]2CSSC[C@H](NC1=O)C(=O)N[C@@H](CCCNC(=N)N)C(=O)NCC(=O)N1CCC[C@@H]1C(=O)N[C@@H](CCCNC(=N)N)C(=O)N[C@@H](CCCNC(=N)N)C(=O)N[C@@H](Cc1ccc3ccccc3c1)C(=O)N2
B9: Example 102 (peptide)
peptide: cyclo(YRSCRG[dP]RRWCY[Cit]D[dP]P)
modifications: disulfide 4-11
SMILES: N=C(N)NCCC[C@@H]1NC(=O)[C@@H]2CSSC[C@H](NC(=O)[C@H](Cc3c[nH]c4ccccc34)NC(=O)[C@H](CCCNC(=N)N)NC(=O)[C@H](CCCNC(=N)N)NC(=O)[C@H]3CCCN3C(=O)CNC1=O)C(=O)N[C@@H](Cc1ccc(O)cc1)C(=O)N[C@@H](CCCNC(N)=O)C(=O)N[C@@H](CC(=O)O)C(=O)N1CCC[C@@H]1C(=O)N1CCC[C@H]1C(=O)N[C@@H](Cc1ccc(O)cc1)C(=O)N[C@@H](CCCNC(=N)N)C(=O)N[C@@H](CO)C(=O)N2
B10: Example 96 (peptide)
peptide: cyclo(YRSCRG[dP]RR[2Nal]CYQK[dP]P)
modifications: disulfide 4-11
SMILES: N=C(N)NCCC[C@@H]1NC(=O)[C@@H]2CSSC[C@H](NC(=O)[C@H](Cc3ccc4ccccc4c3)NC(=O)[C@H](CCCNC(=N)N)NC(=O)[C@H](CCCNC(=N)N)NC(=O)[C@H]3CCCN3C(=O)CNC1=O)C(=O)N[C@@H](Cc1ccc(O)cc1)C(=O)N[C@@H](CCC(N)=O)C(=O)N[C@@H](CCCCN)C(=O)N1CCC[C@@H]1C(=O)N1CCC[C@H]1C(=O)N[C@@H](Cc1ccc(O)cc1)C(=O)N[C@@H](CCCNC(=N)N)C(=O)N[C@@H](CO)C(=O)N2

Target: human CXCR4 (human, UniProt P61073 1-352)
Sequence (P61073 whole entry): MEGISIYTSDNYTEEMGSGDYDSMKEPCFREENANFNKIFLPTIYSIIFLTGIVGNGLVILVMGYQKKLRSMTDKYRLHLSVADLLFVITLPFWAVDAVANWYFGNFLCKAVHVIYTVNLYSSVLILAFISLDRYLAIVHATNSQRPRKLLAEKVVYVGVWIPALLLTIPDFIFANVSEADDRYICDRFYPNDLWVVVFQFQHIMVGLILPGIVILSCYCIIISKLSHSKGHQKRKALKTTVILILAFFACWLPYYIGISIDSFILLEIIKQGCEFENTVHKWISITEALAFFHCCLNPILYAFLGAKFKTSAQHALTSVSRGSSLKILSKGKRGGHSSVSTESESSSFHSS
Test: cell-based or functional assay

Row | Binder | IC50 (nM) Ca2+ assay (method 2) [nM] | IC50 (nM) Ca2+ assay (method 1) [nM]
1 | B1 | 3.9 | –
2 | B2 | 1.28 | –
3 | B3 | – | 3730
4 | B4 | 4.2 | –
5 | B5 | 18.3 | –
6 | B6 | 2.9 | –
7 | B7 | 4.3 | –
8 | B8 | 7 | –
9 | B9 | 8 | –
10 | B10 | 3 | –
